# From PMC7291361 (ACS infectious diseases, 2020)
# B1: K03.12 IgG (antibody, V domains shown)
# VH: QVQLVQSGAEVKKPGASVKVSCKTSGYTFTAYYLHWVRQAPGQGFEWMAWINPNTGDTNYAQKFQGRVTLSRDTSITTAYMELTRLRSDDTAVYYCAKDLTLMYVFDSGWARGAHDYYGMDVWGQGTTVAVSG
# VL: PSALTQPASVSGSPGQSVTISCTGTNSDVGTFDLVSWYQQYPGKAPKLIIYEGSRRPSGVSDRFSGSKSGNTASLTISGLQAEDEADYYCSSYAGSVVFGGGTKLTVL
# Target: H4 NB-10 HA full length soluble ectodomain (FLsE) (Influenza A virus A/American black …, UniProt M1UPL4, strain)
# Assay: ELISA
binder,measurement,value
B1,binding result,no binding (tested: 1 μM IgG)
